Measurements from the RNAGym collection of RNA variant scans (doi:10.7554/elife.80360).

B1: Hairpin Ribozyme (parent)
chain: GUCCUCUUUCACGUGCGCGUGAAAGAGAGAAGUGAACCAGAGAAACACACGUUGUGGUAUAUUACCUGGUA

Variants of: B1
Test: self-cleavage, relative activity (ratio to wild type); higher = more cleavage; co-transcriptional

Variant | self-cleavage
A47U G69A | 0.107
A47U G69U | 0.138
C50G C66A | 0.193
A47G U63G | 0.0332
A47G U63A | 0.211
A49C U58G | 0.286
A49C U58C | 0.316
C48U G51C | 0.0415
C48U G51A | 0.082
C46G A71G | 0.166
C48G G57C | 0.169
A47U C50U | 0.171
C50A A61C | 0.173
C46U G54U | 0.179
A47U U63C | 0.175
C48G A49U | 0.104
C48G A49G | 0.123
A49U G69C | 0.139
A49U G69U | 0.193
C46U U58C | 0.221
C46G U52G | 0.232
C46G U52A | 0.189
C46G U52C | 0.144
C50A G69C | 0.12

Variant | self-cleavage
C46U U60A | 0.16
C46U U60C | 0.247
A47G U52C | 0.124
C50G G51A | 0.249
C46A U60A | 0.0649
C46A U60C | 0.277
C48A U60A | 0.134
C46U A49U | 0.239
C46U A49G | 0.24
C48A U52C | 0.162
C48A U52G | 0.131
A49C C66U | 0.183
A49C C66G | 0.301
A47C A71C | 0.72
C48A U67G | 0.122
A47U G68U | 0.224
A47U A64U | 0.123
A47U A64G | 0.0969
C48A U70C | 0.27
C48G G69A | 0.224
C48G G69U | 0.0941
C48G G69C | 0.0597
A47U C48G | 0.137
A47C U67A | 0.128

Variant | self-cleavage
C46G G54C | 0.0768
A47U C65A | 0.0949
A47U C65G | 0.139
A49G A64G | 0.155
A49G A64C | 0.248
C46U C66U | 0.149
C46G A49C | 0.13
A47G U60G | 0.0656
A47G C50A | 0.172
A47G C50G | 0.105
C46A U62G | 0.0929
A45U U67G | 0.131
A49G U55C | 1.17
A49G U55G | 0.498
C46A G56U | 0.077
C46A A59U | 0.109
C46A A59C | 0.3
C48U U52A | 0.138
C48U U52G | 0.311
C48U U58C | 0.333
C46U C48G | 0.141
C48A U58A | 0.0644
C48A U58G | 0.165
A47C C50A | 0.29

Variant | self-cleavage
A45U U58C | 0.0664
C48U U55C | 0.132
A49U G51U | 0.135
C48G U67A | 0.259
C48G U67C | 0.117
C46U G68U | 0.119
C46U G68A | 0.0828
A49C A61U | 0.104
A45U U52A | 0.122
C48G U52G | 0.225
A45U U55A | 0.197
C46A U58A | 0.198
C46A U58G | 0.158
A47G G57A | 0.151
A47C A49G | 0.308
A47C A49C | 0.204
A49C A71U | 0.27
A47G A49U | 0.0814
C46G U67G | 0.198
C46G U67C | 0.173
A47G G51C | 0.221
A47G G51U | 0.15
A49U C65G | 0.171
C46A G57U | 0.123

Variant | self-cleavage
A49C A64U | 0.178
C46U A61C | 0.0903
C46U A61G | 0.129
A49C G51A | 0.0757
A47C A61U | 0.137
A47C G56U | 0.149
C46A A61U | 0.171
C46G C48A | 0.204
C46G C48U | 0.156
A49C U52C | 0.16
A47C U60C | 0.418
C46A U52A | 0.196
A47G U58C | 0.17
A49C U70C | 0.0597
A49C U70G | 0.0833
A49C U70A | 0.157
A47C U53C | 0.192
A47C U53G | 0.174
A49G A61C | 0.0946
A47U U60A | 0.0931
A47U U60C | 0.0859
A47U U60G | 0.0964
C50G A61U | 0.248
C50G A61C | 0.0643

Variant | self-cleavage
C50G A61G | 0.175
C48U G57U | 0.204
C48U G57C | 0.163
A47C U62G | 0.227
C48A G68A | 0.165
C48A G68C | 0.246
A47U G57U | 0.0955
A47G G69C | 0.112
A47G G69U | 0.118
A49G C66U | 0.258
C46G U62A | 0.148
A49U U52A | 0.209
C48G U60G | 0.108
C48G U60A | 0.121
A49G G51A | 0.651
A49G G51C | 0.495
C46G C50U | 0.185
C50A A71G | 0.253
C50A C66U | 0.15
C50A C66G | 0.217
A49U U63C | 0.172
A47C C66A | 0.205
A49U U60C | 0.331
A49C C65A | 0.225

Variant | self-cleavage
A49C C65G | 0.168
A49U G54C | 0.28
A49C A59U | 0.287
C46U C50G | 0.0749
C46U | 0.149
C46A | 0.148
C46G | 0.15
C48G U58C | 0.143
C48A G54A | 0.169
C50A U63C | 0.198
C50A G68A | 0.143
C50A G68C | 0.178
C50A G68U | 0.15
C48U U60G | 0.125
C48U U60C | 0.389
A49C G54C | 0.187
A49U U55G | 0.366
C48G A59C | 0.119
C46U U63C | 0.106
C50G A64G | 0.164
A49G C65U | 0.107
A49G C65G | 0.184
A49G U58G | 0.45
A49G U58C | 0.532

Variant | self-cleavage
C48G U70C | 0.302
C48U A49C | 0.225
A45U U62G | 0.178
A45U U62A | 0.149
A49U A61C | 0.0823
C46G U60G | 0.151
C46G U60A | 0.091
C48A G57A | 0.121
C48U G56A | 0.222
C48A C65G | 0.132
C48A C65U | 0.189
C46G U70C | 0.203
A47C G69U | 0.0997
A47C G69A | 0.151
A47G U55A | 0.184
A47G U55G | 0.139
C50A G57A | 0.138
A49C | 0.161
A49U | 0.179
A49G | 0.57
C50G A59U | 0.112
A49G G68U | 0.215
A49U A64U | 0.0352
C48U U63A | 0.173

Variant | self-cleavage
C46U C65G | 0.087
A47U A59G | 0.151
C46U G51A | 0.132
C48G U53A | 0.101
C48G U53C | 0.206
A49U U62G | 0.0483
C50A G54U | 0.97
C50A A64C | 0.124
C50A A64U | 0.13
A45U U63C | 0.287
A49C G56A | 0.17
C46G U63A | 0.279
C46G U53C | 0.0868
C46G U53A | 0.0595
A47U U62A | 0.114
C48A G56C | 0.131
A49C G57C | 0.121
A47G C65G | 0.112
C50A A59C | 0.167
C50A A59G | 0.0618
A47G A61G | 0.219
C46G U55G | 0.107
C48U A61U | 0.151
A47G A64G | 0.0949

Variant | self-cleavage
A47G A64C | 0.0744
A49C C50G | 0.129
C48G G54C | 0.189
C48G G54A | 0.172
A45U G57A | 0.17
C50A | 0.283
C50G | 0.275
C46G A47G | 0.136
C46G A47C | 0.125
C46G A61G | 0.126
C46G A61U | 0.157
C46U U52C | 0.215
A49G C50A | 0.249
A49G C50U | 0.129
A47C C65G | 0.203
C48A U62G | 0.0864
C48G A64C | 0.242
C48A G69C | 0.135
C46A A71C | 0.342
A47G U62A | 0.0725
C48U U53C | 0.233
A49G U60G | 0.547
C48G U63C | 0.0816
A49U A71G | 0.221

Variant | self-cleavage
A49U A71U | 0.146
C48U G54U | 0.203
C48U G54A | 0.163
C48U G54C | 0.129
A49U A59U | 0.178
A49U A59C | 0.179
C46U U70C | 0.161
C48U C65A | 0.086
C48U C65G | 0.0909
A47U C66U | 0.228
A47U C66A | 0.157
C48U C66G | 0.138
C48U C66U | 0.194
A47U G54C | 0.144
A47U G54U | 0.145
A47U G54A | 0.159
C46U U62C | 0.213
C46U U62G | 0.237
A47U G51U | 0.166
A47U G51C | 0.31
A49U G68C | 0.14
A49U G68U | 0.128
C46G G68A | 0.123
C46G G68U | 0.19

Variant | self-cleavage
A47C G68U | 0.298
A49C U62A | 0.15
C50A U60A | 0.388
C46U U53A | 0.215
C46U U53G | 0.216
A49C U55C | 0.273
A49C U55G | 0.343
A45U G69U | 0.197
C48U C50A | 0.0417
C48U C50G | 0.109
C48U C50U | 0.0683
A47G A59G | 0.196
C48A A61U | 0.163
C50A G56U | 0.274
C50A G56C | 0.104
A49G U63G | 0.158
A47G C66G | 0.128
C50A U67G | 0.118
C50A U67C | 0.0958
C46A G69A | 0.13
C46A A64G | 0.185
C46A A64U | 0.255
C46A A64C | 0.0755
A47C G51C | 0.377

Variant | self-cleavage
A47G C48A | 0.122
A49U G57U | 0.228
A49U G57A | 0.192
C46G C65A | 0.174
A49G G57C | 0.0948
A49G G57A | 0.111
A47C U55A | 0.195
A47C U70G | 0.272
C48A U63G | 0.229
C48A U63A | 0.174
A47U A71U | 0.234
A47U A71G | 0.191
A47U U55A | 0.161
C48A A64G | 0.127
A49U U70G | 0.39
A49G G56A | 0.204
C46A A47C | 0.0767
C46U G56A | 0.138
C46U G56C | 0.204
A49G U67A | 0.208
A49C U63G | 0.153
A49C U63A | 0.0427
C48G C66G | 0.105
A47C C48A | 0.164

Variant | self-cleavage
A47U U52C | 0.0664
C46A G51U | 0.146
C46A G51A | 0.215
C50G C65G | 0.161
C46G A59U | 0.13
C46U A64C | 0.0758
A47U G56U | 0.148
A47C U58C | 0.318
C48A A49G | 0.215
C48A A49U | 0.172
C48A A49C | 0.155
C46A G54U | 0.307
C48U G69U | 0.182
C48U G69C | 0.124
A45U U70G | 0.24
A45U U70C | 0.056
A45U U70A | 0.0397
A49C U60A | 0.333
A49C U60C | 0.165
C50A U53C | 0.296
C50A G51U | 0.399
C48G A61U | 0.0929
